This note sets out measurements from publication PMC3105396 (Nucleic Acids Research, 2011).

The assay has as its target POLRMT.STREP2 (POLRMT carrying a FLAG and a STREP2 binding group) (human, UniProt O00411 42-1230). In words: pull-down.

Chain of POLRMT.STREP2 (POLRMT carrying a FLAG and a STREP2 binding group) (O00411 42-1230): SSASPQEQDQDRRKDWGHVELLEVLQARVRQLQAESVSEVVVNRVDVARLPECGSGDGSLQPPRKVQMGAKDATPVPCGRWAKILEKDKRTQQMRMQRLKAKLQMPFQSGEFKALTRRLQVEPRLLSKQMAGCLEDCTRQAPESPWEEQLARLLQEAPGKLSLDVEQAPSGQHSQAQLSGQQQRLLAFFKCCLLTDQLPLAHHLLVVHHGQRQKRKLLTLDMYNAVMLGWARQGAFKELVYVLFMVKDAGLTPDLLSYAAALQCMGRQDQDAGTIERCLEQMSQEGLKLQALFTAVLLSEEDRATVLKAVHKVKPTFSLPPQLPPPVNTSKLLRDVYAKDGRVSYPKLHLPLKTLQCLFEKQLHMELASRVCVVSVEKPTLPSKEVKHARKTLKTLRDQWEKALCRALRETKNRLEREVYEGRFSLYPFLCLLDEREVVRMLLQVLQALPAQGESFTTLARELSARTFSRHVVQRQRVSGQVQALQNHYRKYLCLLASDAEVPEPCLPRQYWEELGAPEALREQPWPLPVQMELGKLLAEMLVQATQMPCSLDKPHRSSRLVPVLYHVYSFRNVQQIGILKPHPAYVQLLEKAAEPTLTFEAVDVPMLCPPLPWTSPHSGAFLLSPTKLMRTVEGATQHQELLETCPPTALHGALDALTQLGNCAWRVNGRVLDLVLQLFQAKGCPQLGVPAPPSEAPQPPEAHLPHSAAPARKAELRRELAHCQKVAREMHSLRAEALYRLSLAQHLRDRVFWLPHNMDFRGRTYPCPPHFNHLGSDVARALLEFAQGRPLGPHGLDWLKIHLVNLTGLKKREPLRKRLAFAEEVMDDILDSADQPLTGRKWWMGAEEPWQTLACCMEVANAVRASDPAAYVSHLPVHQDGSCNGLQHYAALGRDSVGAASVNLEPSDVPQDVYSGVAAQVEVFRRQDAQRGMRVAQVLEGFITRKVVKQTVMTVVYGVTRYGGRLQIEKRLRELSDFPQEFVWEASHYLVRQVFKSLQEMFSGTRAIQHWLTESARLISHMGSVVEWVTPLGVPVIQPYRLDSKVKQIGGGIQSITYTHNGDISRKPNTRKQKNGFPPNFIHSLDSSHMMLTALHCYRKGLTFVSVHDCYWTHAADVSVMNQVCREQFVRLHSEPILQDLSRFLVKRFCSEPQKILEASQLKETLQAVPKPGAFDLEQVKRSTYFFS

B1: TEFM (transcription elongation factor of mitochondria), endogenous (natural protein, human (endogenous in HEK 293T), UniProt Q96QE5 36-360, looked up)
chain: KSTTPKKITPNVTFCDENAKEPENALDKLFSSEQQASILHVLNTASTKELEAFRLLRGRRSINIVEHRENFGPFQNLESLMNVPLFKYKSTVQVCNSILCPKTGREKRKSPENRFLRKLLKPDIERERLKAVNSIISIVFGTRRIAWAHLDRKLTVLDWQQSDRWSLMRGIYSSSVYLEEISSIISKMPKADFYVLEKTGLSIQNSSLFPILLHFHIMEAMLYALLNKTFAQDGQHQVLSMNRNAVGKHFELMIGDSRTSGKELVKQFLFDSILKADPRVFFPSDKIVHYRQMFLSTELQRVEELYDSLLQAIAFYELAVFDSQP
For B1, the “amount in the POLRMT.STREP2 peak elution fractions relative to TFAM” value was found to be 2 fold and the “amount in the POLRMT.STREP2 peak elution fractions relative to TFB2M” value turned out to be 5 fold.
